Source: paper PMC4113996, “Prediction and characterization of enzymatic activities guided by sequence similarity and genome neighborhood networks” (eLife, 2014)

Tests used:
Assay in all cases: purified protein
purified protein [1] = substrate: O=C(O)[C@@H]1C[C@@H](O)CN1; conditions: 4HypE reaction (start from t4Hyp as in Figure 1), 50 mM Na-phosphate pH 8.0, 1 mM DTT, 25°C
purified protein [2] = substrate: O=C(O)C1=NCCC1; format: biochemical, Agrobacterium fabrum; conditions: 0.16 mM NADPH, 50 mM Tris-HCl pH 7.6, 25°C
purified protein [3] = substrate: O=C(O)C1=NCCC1; format: biochemical, Pseudomonas aeruginosa; conditions: 0.16 mM NADPH, 50 mM Tris-HCl pH 7.6, 25°C
purified protein [4] = substrate: O=C(O)C1=NCCC1; format: biochemical, Bacillus cereus; conditions: 0.16 mM NADPH, 50 mM Tris-HCl pH 7.6, 25°C

B1: Avi_0518 (B9JQV3) (Allorhizobium ampelinum S4) (protein)
chain: MRWKRMMQLLDVHCEGEIGKVAIGGVPKIPGDTVADQLHWLNTDPKGRELRHFLVLEPRGAPIGSVNLLLPAKDSRADAAFIILQPDQAHASSGSNSICVTTALLESGMIEMQEPETVVMLETAAGLVKAVAQCRDGHCDSVTLTMVPSFVHELDAQIATESWGEIRFDLAYGGVFYALVDVRQLGLTIEPGNARRLVEAGMLLKGEINQRIQVVHPDIPAISGVAYVMFRDEDPDGAVRTCTTMWPGRVDRSPCGTGNSANLATLHARGRVKPGDSFLSRSIIGSQFTVGLQGLTTVAGRSAVIPTITGRGFTYGIHQVALDAFDPLGGGFVLTDVWGAAAETIKI
Km (purified protein [1]): 5600 ± 500 µM

B2: Atu4676 (Q7CVK1) (Agrobacterium fabrum str. C58) (protein)
chain: MSDTTTLTIEALFQRVESIFLRAGLNAVQSGALARVITAGERDACKSHGIYRIEGALRTVKAAKVKPDAIPEVAEDDGTAIVKVNAMGGFANPAFELGLPALAERAKRLGLAALVINDCTHFSALWPEVEGLTSNGLAGLVMCPSYSTVAPTGGTKPLLGTNPFAFGWPRKDTSPYVFDFATSVAARGEIELHRRARKSLPEGWAVDADGNPTTDPEAALAGAMLPFGGHKGSAIGTMIELLAGIMIGDLTSPEVLDYLGTTTLAPFHGELIVAFSPEAFAKGRPGDPFQRAEVLFEAIIGQGARLPSGRRFAARAKSESEGITLTAAEMAGLDRLLEKGLDAVS
Km (purified protein [2]): 330 ± 40 µM | kcat (purified protein [2]): 32 ± 1 s⁻¹

B3: PA1252 (Q9I492) (Pseudomonas aeruginosa PAO1) (protein)
chain: MIRMTLDEVRELAVRILRRHAFSEAHVQAVADTLVAGERDECASHGIWRLLGCIATLKAGKVSADAEPELHDIAPGLLRVDAHGGFSQCAFRLGLPHLLEKARSQGIAAMAVNRCVHFSALWVEVEALTEAGLVALATTPSHAWVAPAGGRKPIFGTNPIAFGWPRPDGPPFVFDFATSAVARGEIQLHERAGKPIPLGWGVDEQGEPTTDASAALRGAMLTFGGHKGSALAAMVELLAGPLIGDLTSAESLAYDEGSRSSPYGGELLIAIDPRRMLGASAEEHLARAETLFEGIVEQGARLPSQRRFEARERSARDGVTIPEALHRELLALLE
Km (purified protein [3]): 410 ± 60 µM | kcat (purified protein [3]): 1.6 ± 0.05 s⁻¹

B4: BC_0906 (Q81HB0) (Bacillus cereus ATCC 14579) (protein)
chain: MLVISANEQRNLVNMNEVIEYAALALKEFSAERTITPIRGSLPFANEQNTALIMPSVAEGLEALGVKIVTVVPQNKQIGKKTINGIVMLSDFQAGEPLALLEGSYLTMIRTGALSGVATKYLARHNAKTLCIIGTGEQAKGIAEAIFAVRDIEKVILYNRTEEKAYAFAQYIQEKFGKPAYVYKDPNEAVREADIIVTTTNATTPVFSEILQKGVHVNAVGSFRPSMQELPSHAIAKANKVVVESKEAALDETGDLQVPIKEGLFKANAIHAELGQIISGEKAGRENDEEITIFKSVGLAVVDIIVAKYLYERALEQGVGNKIEF
Km (purified protein [4]): 470 ± 100 µM | kcat (purified protein [4]): 15 ± 1 s⁻¹
